# Measured values: US11655307B2, “Anti-doublecortin-like kinase 1 antibodies and methods of use” (The Board of Regents of the University of Oklahoma, priority 2017, dated 2023)
# Entries after “also recorded” stand apart in the source; their conditions may differ.
# T1: DCLK1 isoform 4 purified protein (Homo sapiens, UniProt O15075)
# T1 sequence (O15075 1-433 isoform O15075-4): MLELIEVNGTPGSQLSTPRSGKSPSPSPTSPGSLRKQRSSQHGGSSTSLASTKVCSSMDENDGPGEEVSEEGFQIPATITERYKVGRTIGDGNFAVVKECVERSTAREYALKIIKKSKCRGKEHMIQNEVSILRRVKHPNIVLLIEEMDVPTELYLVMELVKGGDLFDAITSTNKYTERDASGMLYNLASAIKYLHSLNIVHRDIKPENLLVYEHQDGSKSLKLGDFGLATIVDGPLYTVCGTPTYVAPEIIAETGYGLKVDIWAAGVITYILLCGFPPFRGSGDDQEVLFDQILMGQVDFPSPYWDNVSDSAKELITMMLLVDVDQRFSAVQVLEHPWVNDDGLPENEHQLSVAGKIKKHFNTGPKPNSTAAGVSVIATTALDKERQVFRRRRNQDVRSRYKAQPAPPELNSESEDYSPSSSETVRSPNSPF
# B1: CBT-15G: Anti-DCLK1 mouse monoclonal antibody, Immunoglobulin G213 species, raised against immunogen no. 8; VH SEQ ID NO:24, VL SEQ ID NO:26 (antibody, V domains shown)
# VH: EVQLQQSGTALARPGASVKMSCKASGYSFTSYWMHWVKQRPGQGLEWIGAIYPGKSDTSYNQKFKGKAKLTAVTSASTAYMELSSLTNEDSAVYYCTRYGKGAMDYWGQGTSVTVSS
# VL: DIVLTQSHKFMSTSVGDRVTITCKASQDVNTAVAWYQKKPGQSPKLLIYWASTRLTGVPDRFTGSGSGTDYTLTISSVQAEDLALYYCQQHYSTPYTFGGGTKLEIK
# modifications: HC variable AA sequence of CBT-15G; LC variable AA sequence of CBT-15G
# Columns and labels:
# [1] = system: Caki-2 cells overexpressing DCLK1; assay: Proliferation/drug resistance assay (MTT), DCLK1-overexpressing cells; format: cell-based, human; conditions: increasing drug concentrations; FIG. 16-17
# Description: This gBlock also contains a part of human DCLK1 isoform 1 sequence shared with isoform 2, with the addition of the unique DCLK1 isoform 2 C-terminal sequence (NCBI Reference Sequence: XM_005266592.2). The vector containing DCLK1 isoform 1 and the gBlock were digested with EcoRI and Scat Both digested vector and gBlock fragment were gel purified and DCLK1 isoform 2 was constructed by ligating the digested vector with the synthetic DNA fragment. The ligated cDNA product was confirmed by automatic sequencing. […] RCC cell line Caki-2 was infected with Lentivirus containing human DCLK1 cDNA sequence to overexpress DCLK1 Isoform 2/long-α (caki2-dsRed-DCLK1) or red fluorescent protein (RFP) cDNA as control (caki2-dsRed) and selected to 100% expression with puromycin.
# Cells (5000/well) were seeded into a 96-well tissue culture plate in quadruplicate. […] 48 or 72 h after incubation, 10 μL of MTT (RND Systems) was added to each well and cells were incubated at 37° C. for 4 h. […] In order to fully dissolve the precipitated MTT crystals, the plate was placed on a shaker at low speed for 1 min and a microplate reader was used to read the OD570 for each well.
# The high level of expression of vascular endothelial growth factor (VEGF) and its receptors in RCC supports its highly vascular nature making VEGF and its receptors therapeutic targets. […] Given the tight relationship between sternness and the response to targeted therapies and its importance in patient survival, we further investigated DCLK1's role in this process. Caki-2 cells overexpressing DCLK1 were seeded into 96-well plates, allowed to attach overnight, and then treated with increasing concentrations of sunitinib or sorafenib. Relative cell viability was then evaluated by MTT assay.
# The intracellular serine/threonine kinase mTOR is involved in a wide range of pathways and plays an essential role in cellular metabolism and cancer progression.
# [2] = system: pancreatic cancer SW1990 tumor xenograft; assay: SW1990 xenograft tumor study; format: in vivo, mice; conditions: 25 mg/kg biweekly
# Experimental: 0.5×10^6 cells were injected into the flanks of 8 week-old athymic nude mice and the resulting tumors were allowed to grow to an average volume 100 mm^3. Upon reaching this volume we began delivering CBT-15 or isotype control mAB at 25 mg/kg biweekly. Tumor volume measurements were taken approximately every other day. At the end of 4 weeks from the start of injections animals were culled and tumors were excised, measured, and weighed.
# [3] = molecular target: T1, DCLK1 isoform 4 purified protein; assay: Western blotting against purified DCLK1 protein; format: binding; conditions: FIG. 1
# Experimental: Lysates from ACHN or CAKI2 cells were subjected to Western blot analysis. The concentration of total proteins was determined by BCA protein assay (Pierce, Rockford, Ill.). 40 μg of protein lysates were size separated on a 4%-20% SDS polyacrylamide gel and transferred onto a PVDF membrane. The membrane was blocked in 1% caseine for 30 minutes and probed with primary antibody α-DCLK1 (ABCAM, ab31704), HIF-1α (ABCAM, ab2185), Vimentin (Santa Cruz, S.C.-7557), ALDH1A1 (ABCAM, ab52492), β-Actin (ABCAM, ab8226) overnight at 4° C. The membrane was then washed 3 times with TBST and probed with species-appropriate secondary antibody (cw800-conjugated) for 30 mins at room temperature protected from light. Finally, proteins were detected using a LICOR Odyssey Infrared Imager and density quantification was performed in Image Studio Lite (LICOR) where appropriate.
# The resulting monoclonal antibodies produced from this screening process included an Immunoglobulin A species (CBT-15A) and an Immunoglobulin G213 species (CBT-15G). Following purification of the resulting antibodies, their affinity for DCLK1 was confirmed by Western blotting against DCLK1 isoform 4 purified protein (FIG. 1). […] The ability of these antibodies to bind extracellular DCLK1 was further apparent in FACS sorting experiments. […]
# ACHN cells = assay: In vitro PBMC-killing assay (Caspase-3/7 Glo), renal cancer cells; format: cell-based; conditions: antibody pretreatment, then 72 h co-culture with human PBMC; FIG. 24A
# Experimental: ACHN cells were seeded into a 96-well plate at 5×10^4 cells per well and allowed to attach overnight at 37° C. CBT-15 mAB or isotype control mAB were added to the ACHN wells at concentrations of 100 μg/mL in quadruplicate and incubated at 37° C. for 72 h. After mAB treatment, the media was replaced and 1.25×10^5 primary human PBMC cells (ATCC) were co-incubated with the ACHN cells for 72 h. Finally, luminescent CaspaseGlo® 3/7 activity (Promega) assay was performed according to the manufacturer's protocol as a surrogate measure of apoptosis.
# (§1) To further assess the functional relevance of these findings we seeded ACHN renal and AsPC-1 pancreatic cancer cells into 96 wells and subjected them to antibody-dependent cell-mediated cytotoxicity assay. Briefly, 10^4 cancer cells were seeded into each well after 48 hours pretreatment with either isotype control or CBT-15 monoclonal antibody. Human peripheral blood […] were then seeded into each well at 10^5 cells per well and co-cultured for 72 h. After 72 h Caspase-3/7 Glo assay was performed to assess apoptosis.
# [4] = system: AsPC-1 pancreatic cancer cells; assay: In vitro PBMC-killing assay (Caspase-3/7 Glo), pancreatic cancer cells; format: cell-based; conditions: 48 h antibody pretreatment, then 72 h co-culture with human PBMC; FIG. 24B
# Experimental: as §1
molecule,measurement,setting,value
CO[C@H]1C[C@@H]2CC[C@@H](C)[C@@](O)(O2)C(=O)C(=O)N2CCCC[C@H]2C(=O)O[C@H]([C@H](C)C[C@@H]2CC[C@@H](OCCO)[C@H](OC)C2)CC(=O)[C@H](C)/C=C(\C)[C@@H](O)[C@@H](OC)C(=O)[C@H](C)C[C@H](C)/C=C/C=C/C=C/1C [everolimus],"sensitivity of DCLK1-overexpressing cells to the drug compared to dsRed vector control cells (relative cell viability, MTT)",[1],significantly decreases sensitivity
CNC(=O)c1cc(Oc2ccc(NC(=O)Nc3ccc(Cl)c(C(F)(F)F)c3)cc2)ccn1 [sorafenib],"sensitivity of DCLK1-overexpressing cells to the drug compared to dsRed vector control cells (relative cell viability, MTT)",[1],did not elicit significant resistance; also recorded: not resistant
CO[C@H]1C[C@@H]2CC[C@@H](C)[C@@](O)(O2)C(=O)C(=O)N2CCCC[C@H]2C(=O)O[C@H]([C@H](C)C[C@@H]2CC[C@@H](OC(=O)C(C)(CO)CO)[C@H](OC)C2)CC(=O)[C@H](C)/C=C(\C)[C@@H](O)[C@@H](OC)C(=O)[C@H](C)C[C@H](C)/C=C/C=C/C=C/1C [temsirolimus],"sensitivity of DCLK1-overexpressing cells to the drug compared to dsRed vector control cells (relative cell viability, MTT)",[1],significantly decreases sensitivity
B1,excised tumor volume vs isotype mAB,"[2]; end of treatment, FIG. 29, 32",significant decrease
same,excised tumor weight vs isotype mAB,"[2]; end of treatment, FIG. 30, 33",decrease
same,xenograft tumor growth (tumor volume over time) vs isotype mAB,"[2]; athymic nude mice, 4 weeks, FIG. 28, 31, 25 mg/kg",strongly inhibited; also recorded: substantially reduced
same,affinity for DCLK1 by Western blot (detection of purified DCLK1 protein),[3],confirmed; also recorded: detect
same,"PBMC mediated apoptosis, Caspase-3/7 activity relative to isotype control",ACHN cells,can sensitize
same,"immune cell mediated cell killing, Caspase-3/7 activity relative to isotype control",[4],significantly increased; also recorded: increase
